Test results published in patent US20170313750A1 (Novo Nordisk, published 2017).
Changes are numbered by the printed parent chain. Numbered stars: 1 amine (or outer) side, 2 acyl side, 3 side chain; on linkers, the order of the positions; unused ones are H or OH. Side chains are listed from the residue outwards. * marks the point of attachment. Hexadecanoyl(16-SO3H) = O=C(CCCCCCCCCCCCCCCS(=O)(=O)O)*; C18 diacid = O=C(O)CCCCCCCCCCCCCCCCC(=O)*; γGlu = O=C(O)[C@H](CCC(=O)[*:2])N[*:1]; Isovaleryl = CC(C)CC(=O)*; AEEA = NCCOCCOCC(=O)O

B1: N{alpha-4}-(3-Methylbutanoyl)-N{Epsilon-7}-[2-[2-[2-[[(4S)-4-carboxy-4-(13-carboxytridecanoylamino)butanoyl]amino]ethoxy]ethoxy]acetyl]-[Arg4,Lys7,Pro9,Gln18,Ty … (peptide)
peptide: RPEKPPEDASPEELQRYYASLRHYYNWLTRQRY
modifications: N-terminal alpha-amino (position 4): 3-methylbutanoyl; Lys7 (hPYY(1-36) numbering) epsilon-amino: [2-[2-[2-[[(4S)-4-carboxy-4-(13-carboxytridecanoylamino)butanoyl]amino]ethoxy]ethoxy]acetyl]; C-terminal amide
notes: also called Compound 71; 71
B2: N{alpha-4}-(3-Methylbutanoyl)-N{Epsilon-7}-[(4S)-4-carboxy-4-(17-carboxy-heptadecanoylamino)butanoyl]-[Arg4,Lys7,Thr9,Gln18,Val22,Tyr28,Trp30,Leu31]hPYY(4-36) (peptide)
peptide: B1 peptide with P6T, A19V
HELM: PEPTIDE1{[CC(C)CC(=O)[*:2]].R.P.E.K.P.T.E.D.A.S.P.E.E.L.Q.R.Y.Y.V.S.L.R.H.Y.Y.N.W.L.T.R.Q.R.Y.[am]}|PEPTIDE2{[O=C(O)CCCCCCCCCCCCCCCCC(=O)[*:2]].[gGlu]}$PEPTIDE1,PEPTIDE2,5:R3-2:R2$$$V2.0
SMILES: CC(C)CC(=O)N[C@@H](CCCNC(=N)N)C(=O)N1CCC[C@H]1C(=O)N[C@@H](CCC(=O)O)C(=O)N[C@@H](CCCCNC(=O)CC[C@H](NC(=O)CCCCCCCCCCCCCCCCC(=O)O)C(=O)O)C(=O)N1CCC[C@H]1C(=O)N[C@H](C(=O)N[C@@H](CCC(=O)O)C(=O)N[C@@H](CC(=O)O)C(=O)N[C@@H](C)C(=O)N[C@@H](CO)C(=O)N1CCC[C@H]1C(=O)N[C@@H](CCC(=O)O)C(=O)N[C@@H](CCC(=O)O)C(=O)N[C@@H](CC(C)C)C(=O)N[C@@H](CCC(N)=O)C(=O)N[C@@H](CCCNC(=N)N)C(=O)N[C@@H](Cc1ccc(O)cc1)C(=O)N[C@@H](Cc1ccc(O)cc1)C(=O)N[C@H](C(=O)N[C@@H](CO)C(=O)N[C@@H](CC(C)C)C(=O)N[C@@H](CCCNC(=N)N)C(=O)N[C@@H](Cc1c[nH]cn1)C(=O)N[C@@H](Cc1ccc(O)cc1)C(=O)N[C@@H](Cc1ccc(O)cc1)C(=O)N[C@@H](CC(N)=O)C(=O)N[C@@H](Cc1c[nH]c2ccccc12)C(=O)N[C@@H](CC(C)C)C(=O)N[C@H](C(=O)N[C@@H](CCCNC(=N)N)C(=O)N[C@@H](CCC(N)=O)C(=O)N[C@@H](CCCNC(=N)N)C(=O)N[C@@H](Cc1ccc(O)cc1)C(N)=O)[C@@H](C)O)C(C)C)[C@@H](C)O
notes: also called Compound 44; 44
B3: N{alpha-4}-(3-Methylbutanoyl)-N{Epsilon-7}-[(4S)-4-carboxy-4-[[(4S)-4-carboxy-4-(19-carboxynonadecanoylamino)butanoyl]amino]butanoyl]-[Arg4,Lys7,Pro9,Gln18, … (peptide)
peptide: B1 peptide
modifications: N-terminal alpha-amino (position 4): 3-methylbutanoyl; Lys7 (hPYY(1-36) numbering) epsilon-amino: [(4S)-4-carboxy-4-[[(4S)-4-carboxy-4-(19-carboxynonadecanoylamino)butanoyl]amino]butanoyl]; C-terminal amide
notes: also called Compound 12; 12
B4: N{alpha-4}-(3-Methylbutanoyl)-N{Epsilon-10}-[(4S)-4-carboxy-4-[[2-[2-[2-[[(4S)-4-carboxy-4-(16-sulfohexadecanoylamino)butanoyl]amino]ethoxy]-ethoxy]acetyl]amino … (peptide)
peptide: Isovaleryl-RPEAPPK([γGlu-AEEA-γGlu-Hexadecanoyl(16-SO3H)])DASPEELQRYYASLRHYYNWLTRQRY-NH2
SMILES: CC(C)CC(=O)N[C@@H](CCCNC(=N)N)C(=O)N1CCC[C@H]1C(=O)N[C@@H](CCC(=O)O)C(=O)N[C@@H](C)C(=O)N1CCC[C@H]1C(=O)N1CCC[C@H]1C(=O)N[C@@H](CCCCNC(=O)CC[C@H](NC(=O)COCCOCCNC(=O)CC[C@H](NC(=O)CCCCCCCCCCCCCCCS(=O)(=O)O)C(=O)O)C(=O)O)C(=O)N[C@@H](CC(=O)O)C(=O)N[C@@H](C)C(=O)N[C@@H](CO)C(=O)N1CCC[C@H]1C(=O)N[C@@H](CCC(=O)O)C(=O)N[C@@H](CCC(=O)O)C(=O)N[C@@H](CC(C)C)C(=O)N[C@@H](CCC(N)=O)C(=O)N[C@@H](CCCNC(=N)N)C(=O)N[C@@H](Cc1ccc(O)cc1)C(=O)N[C@@H](Cc1ccc(O)cc1)C(=O)N[C@@H](C)C(=O)N[C@@H](CO)C(=O)N[C@@H](CC(C)C)C(=O)N[C@@H](CCCNC(=N)N)C(=O)N[C@@H](Cc1c[nH]cn1)C(=O)N[C@@H](Cc1ccc(O)cc1)C(=O)N[C@@H](Cc1ccc(O)cc1)C(=O)N[C@@H](CC(N)=O)C(=O)N[C@@H](Cc1c[nH]c2ccccc12)C(=O)N[C@@H](CC(C)C)C(=O)N[C@H](C(=O)N[C@@H](CCCNC(=N)N)C(=O)N[C@@H](CCC(N)=O)C(=O)N[C@@H](CCCNC(=N)N)C(=O)N[C@@H](Cc1ccc(O)cc1)C(N)=O)[C@@H](C)O
notes: also called Compound 69; 69
B5: N{alpha-4}-(3-Methylbutanoyl)-N{Epsilon-10}-[(4S)-4-carboxy-4-[[2-[2-[2-[[(4S)-4-carboxy-4-(17-carboxyheptadecanoylamino)butanoyl]amino]ethoxy]ethoxy]-acetyl]am … (peptide)
peptide: Isovaleryl-RPEAPGK([γGlu-AEEA-γGlu-C18 diacid])DASPEELQRYYESLRHYYNWLTRQRY-NH2
SMILES: CC(C)CC(=O)N[C@@H](CCCNC(=N)N)C(=O)N1CCC[C@H]1C(=O)N[C@@H](CCC(=O)O)C(=O)N[C@@H](C)C(=O)N1CCC[C@H]1C(=O)NCC(=O)N[C@@H](CCCCNC(=O)CC[C@H](NC(=O)COCCOCCNC(=O)CC[C@H](NC(=O)CCCCCCCCCCCCCCCCC(=O)O)C(=O)O)C(=O)O)C(=O)N[C@@H](CC(=O)O)C(=O)N[C@@H](C)C(=O)N[C@@H](CO)C(=O)N1CCC[C@H]1C(=O)N[C@@H](CCC(=O)O)C(=O)N[C@@H](CCC(=O)O)C(=O)N[C@@H](CC(C)C)C(=O)N[C@@H](CCC(N)=O)C(=O)N[C@@H](CCCNC(=N)N)C(=O)N[C@@H](Cc1ccc(O)cc1)C(=O)N[C@@H](Cc1ccc(O)cc1)C(=O)N[C@@H](CCC(=O)O)C(=O)N[C@@H](CO)C(=O)N[C@@H](CC(C)C)C(=O)N[C@@H](CCCNC(=N)N)C(=O)N[C@@H](Cc1c[nH]cn1)C(=O)N[C@@H](Cc1ccc(O)cc1)C(=O)N[C@@H](Cc1ccc(O)cc1)C(=O)N[C@@H](CC(N)=O)C(=O)N[C@@H](Cc1c[nH]c2ccccc12)C(=O)N[C@@H](CC(C)C)C(=O)N[C@H](C(=O)N[C@@H](CCCNC(=N)N)C(=O)N[C@@H](CCC(N)=O)C(=O)N[C@@H](CCCNC(=N)N)C(=O)N[C@@H](Cc1ccc(O)cc1)C(N)=O)[C@@H](C)O
notes: also called Compound 50; 50
B6: N{alpha-4}-(3-Methylbutanoyl)-N{Epsilon-10}-[(4S)-4-carboxy-4-[[2-[2-[2-[[(4S)-4-carboxy-4-(17-carboxyheptadecanoylamino)butanoyl]amino]ethoxy]ethoxy]-acetyl]am … (peptide)
peptide: Isovaleryl-RPEAPGK([γGlu-AEEA-γGlu-C18 diacid])DASPEELQRYYAELRHYYNWLTRQRY-NH2
SMILES: CC(C)CC(=O)N[C@@H](CCCNC(=N)N)C(=O)N1CCC[C@H]1C(=O)N[C@@H](CCC(=O)O)C(=O)N[C@@H](C)C(=O)N1CCC[C@H]1C(=O)NCC(=O)N[C@@H](CCCCNC(=O)CC[C@H](NC(=O)COCCOCCNC(=O)CC[C@H](NC(=O)CCCCCCCCCCCCCCCCC(=O)O)C(=O)O)C(=O)O)C(=O)N[C@@H](CC(=O)O)C(=O)N[C@@H](C)C(=O)N[C@@H](CO)C(=O)N1CCC[C@H]1C(=O)N[C@@H](CCC(=O)O)C(=O)N[C@@H](CCC(=O)O)C(=O)N[C@@H](CC(C)C)C(=O)N[C@@H](CCC(N)=O)C(=O)N[C@@H](CCCNC(=N)N)C(=O)N[C@@H](Cc1ccc(O)cc1)C(=O)N[C@@H](Cc1ccc(O)cc1)C(=O)N[C@@H](C)C(=O)N[C@@H](CCC(=O)O)C(=O)N[C@@H](CC(C)C)C(=O)N[C@@H](CCCNC(=N)N)C(=O)N[C@@H](Cc1c[nH]cn1)C(=O)N[C@@H](Cc1ccc(O)cc1)C(=O)N[C@@H](Cc1ccc(O)cc1)C(=O)N[C@@H](CC(N)=O)C(=O)N[C@@H](Cc1c[nH]c2ccccc12)C(=O)N[C@@H](CC(C)C)C(=O)N[C@H](C(=O)N[C@@H](CCCNC(=N)N)C(=O)N[C@@H](CCC(N)=O)C(=O)N[C@@H](CCCNC(=N)N)C(=O)N[C@@H](Cc1ccc(O)cc1)C(N)=O)[C@@H](C)O
notes: also called Compound 53; 53

Columns and labels:
[1] = molecular target: T1, human Y2 receptor (P49146, NPY2R_HUMAN, Uniprot) (human, UniProt P49146 1-381); assay: cell-based or functional assay
T1 sequence (looked up): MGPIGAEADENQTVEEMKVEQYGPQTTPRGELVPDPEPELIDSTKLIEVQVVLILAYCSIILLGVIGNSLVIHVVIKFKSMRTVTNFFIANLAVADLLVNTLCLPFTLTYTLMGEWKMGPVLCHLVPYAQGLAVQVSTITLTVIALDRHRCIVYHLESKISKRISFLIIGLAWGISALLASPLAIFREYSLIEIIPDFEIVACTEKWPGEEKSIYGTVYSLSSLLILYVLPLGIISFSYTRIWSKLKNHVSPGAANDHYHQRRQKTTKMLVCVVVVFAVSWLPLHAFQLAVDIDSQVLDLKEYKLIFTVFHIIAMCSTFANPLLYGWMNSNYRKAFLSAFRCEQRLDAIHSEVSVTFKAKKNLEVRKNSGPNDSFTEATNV

[2] = molecular target: T1, human Y2 receptor (P49146, NPY2R_HUMAN, …); assay: SPA vs [125I]-PYY(1-36)
Protocol: (§1) Human Y receptor SPA binding assay were performed in white 96-well plates in a total volume of 200 μl per well.
(§2) Plates were sealed and incubated at +25° C. for 2 hours in a plate shaker set at 400 rpm and thereafter centrifuged at 1500 rpm for 10 minutes prior to reading of luminescence on a microplate scintillation and luminescence counter.

[3] = molecular target: T2, human Y4 receptor (P50391, NPY4R_HUMAN, Uniprot) (human, UniProt P50391 1-375); assay: SPA vs [125I]-PP
T2 construct: whole, on cells; Assayed as membrane preparations of the expressing cells
Protocol: as §1, §2

[4] = molecular target: T3, human Y5 receptor (Q15761, NPY5R_HUMAN, Uniprot) (human, UniProt Q15761 1-445); assay: SPA vs [125I]-PYY(1-36)
T3 construct: whole, on cells; Assayed as membrane preparations of the expressing cells
T3 sequence (looked up): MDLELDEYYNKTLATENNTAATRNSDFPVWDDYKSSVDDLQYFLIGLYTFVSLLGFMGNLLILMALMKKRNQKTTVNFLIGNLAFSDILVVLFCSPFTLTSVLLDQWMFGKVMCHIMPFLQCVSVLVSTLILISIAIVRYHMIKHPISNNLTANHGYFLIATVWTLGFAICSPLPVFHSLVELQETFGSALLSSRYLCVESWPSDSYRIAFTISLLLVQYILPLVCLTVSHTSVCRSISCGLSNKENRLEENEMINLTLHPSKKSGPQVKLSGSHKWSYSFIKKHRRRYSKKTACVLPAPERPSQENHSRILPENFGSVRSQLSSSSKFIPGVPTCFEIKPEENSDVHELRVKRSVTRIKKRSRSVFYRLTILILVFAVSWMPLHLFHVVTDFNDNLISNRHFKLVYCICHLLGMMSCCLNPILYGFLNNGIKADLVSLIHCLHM
Protocol: as §1, §2

[5] = molecular target: T2, human Y4 receptor (P50391, NPY4R_HUMAN, …); assay: ratio of SPA values, Y2 as reference
Protocol: as §1, §2

[6] = molecular target: T3, human Y5 receptor (Q15761, NPY5R_HUMAN, …); assay: ratio of SPA values, Y2 as reference
Protocol: as §1, §2

T2 sequence (P50391 whole entry, one chain of several): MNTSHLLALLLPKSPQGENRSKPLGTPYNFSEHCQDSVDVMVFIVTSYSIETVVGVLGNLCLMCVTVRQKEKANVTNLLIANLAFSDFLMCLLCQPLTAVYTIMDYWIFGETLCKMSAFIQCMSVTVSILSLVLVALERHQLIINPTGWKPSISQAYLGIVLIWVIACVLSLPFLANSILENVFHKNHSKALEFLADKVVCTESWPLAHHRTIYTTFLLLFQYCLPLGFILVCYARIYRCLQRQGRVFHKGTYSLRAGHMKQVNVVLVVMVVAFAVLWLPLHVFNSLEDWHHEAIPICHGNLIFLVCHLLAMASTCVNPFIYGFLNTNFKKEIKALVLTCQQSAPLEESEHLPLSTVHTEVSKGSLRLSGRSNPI

| Binder | Y2 EC50, Actone functional potency assay [1] [nM] | Ki [2] [nM] | Ki [3] [nM] | Ki [4] [nM] | Ratio of Y4/Y2 EC50 values [5] | Ratio of Y5/Y2 EC50 values [6] |
| --- | --- | --- | --- | --- | --- | --- |
| B1 | 0.5 | 0.51 | – | – | – | – |
| Isovaleryl-RPEK([γGlu-C18 diacid])PTEDASPEELQRYYQSLRHYYNWLTRQRY-NH2 (also called Compound 43) | 0.77 | – | 6400 | 509 | – | – |
| B2 | 1.35 | 0.33 | 6670 | 470 | 20200 | 1420 |
| B3 | 4.35 | 1.1 | – | – | – | – |
| Isovaleryl-RPEAPGK([AEEA-AEEA-γGlu-C18 diacid])DASPEELQRYYAELRHYYNWLTRQRY-NH2 (also called Compound 52; 52) | – | 0.66 | 5690 | 182 | 8620 | 275 |
| B4 | – | 0.94 | 5690 | 146 | – | – |
| B5 | – | 3.3 | – | 122 | – | – |
| B6 | 0.77 | 1.15 | 9290 | 452 | 8080 | 393 |
| Isovaleryl-RPEAPGK([γGlu-AEEA-γGlu-C18 diacid])DASPEELQRYYASLRHYYNWLTRQRY-NH2 (also called Compound 59; 59) | – | – | – | 279 | – | – |
